Assay results: PMC6540902, “A simple, robust, universal assay for real-time enzyme monitoring by signalling changes in nucleoside phosphate anion concentration using a europium(III)-based anion receptor” (Chemical Science, 2019)

Substrate: CC(C)C[C@H](NC(=O)[C@H](CO)NC(=O)[C@H](C)NC(=O)[C@H](CCCNC(=N)N)NC(=O)[C@H](CCCNC(=N)N)NC(=O)[C@@H](N)CC(C)C)C(=O)NCC(=O)O
Assay: Michaelis-Menten substrate titration (Km) by real-time Eu(III) luminescence
Assay type: biochemical, Homo sapiens
Details: ATP, Mg2+

B1: Aurora A kinase (AurA) (Homo sapiens) (protein)
chain: MDRSKENCISGPVKATAPVGGPKRVLVTQQFPCQNPLPVNSGQAQRVLCPSNSSQRIPLQAQKLVSSHKPVQNQKQKQLQATSVPHPVSRPLNNTQKSKQPLPSAPENNPEEELASKQKNEESKKRQWALEDFEIGRPLGKGKFGNVYLAREKQSKFILALKVLFKAQLEKAGVEHQLRREVEIQSHLRHPNILRLYGYFHDATRVYLILEYAPLGTVYRELQKLSKFDEQRTATYITELANALSYCHSKRVIHRDIKPENLLLGSAGELKIADFGWSVHAPSSRRTTLCGTLDYLPPEMIEGRMHDEKVDLWSLGVLCYEFLVGKPPFEANTYQETYKRISRVEFTFPDFVTEGARDLISRLLKHNPSQRPMLREVLEHPWITANSSKPSNCQNKESASKQS
In the case of B1, the Km is reported as 176 ± 29 µM.
